Residue numbers refer to the chain shown, from its start.
B1: REGN10987 scFv combinatorial variant d1 displayed on HEK 293T cells (scFv, V domains shown)
VH: QVQLVESGGGVVQPGRSLRLSCAASGFTFSNYAMYWVRQAPGKGLEWVAVISYTGSNKYYADSVKGRFTISRDNSKNTLYLQMNSLRTEDTAVYYCASGSDYGDYLLVYWGQGTLVTVSS
VL: QSALTQPASVSGSPGQSITISCTGTSSDVGGYNYVSWYQQHPGKAPKLMIYDVSKRPSGVSNRFSGSKSGNTASLTISGLQSEDEADYYCNSLTSIYTWVFGGGTKLTVL
B2: REGN10987 scFv combinatorial variant d2 displayed on HEK 293T cells (scFv, V domains shown)
VH: B1 VH with T54D, N57H
VL: B1 VL
B3: REGN10987 scFv combinatorial variant d3 displayed on HEK 293T cells (scFv, V domains shown)
VH: B1 VH with N57H
VL: B1 VL
B4: REGN10987 scFv combinatorial variant d6 displayed on HEK 293T cells (scFv, V domains shown)
VH: B1 VH with T54I
VL: B1 VL
B5: REGN10987 scFv combinatorial variant d8 displayed on HEK 293T cells (scFv, V domains shown)
VH: B1 VH with T54L
VL: B1 VL
B6: REGN10987 scFv combinatorial variant A1 displayed on HEK 293T cells (scFv, V domains shown)
VH: B1 VH with T54D, N57F, L106N
VL: B1 VL with Y97S
B7: REGN10987 scFv combinatorial variant A2 displayed on HEK 293T cells (scFv, V domains shown)
VH: B1 VH with T54D, N57T, L106N
VL: B1 VL with Y97S

Molecular target: biotinylated recombinant SARS-CoV-2 wild type spike RBD (SARS-CoV-2, wild type, UniProt P0DTC2, biotin (biotinylated; detected with streptavidin-FITC))
Assay: flow cytometry on cells
Conditions: one partner purified

| Binder | binding result |
| --- | --- |
| B1 | binds |
| B2 | binds |
| B3 | binds |
| B4 | binds |
| B5 | binds |
| B6 | binds |
| B7 | binds |
